For experiment [1], the target named is Casein.
Experiment [2] has as its target T1, S6 peptide.
T1 sequence (peptide): RRLSSLRA

In experiment [3] the target is T2, Band-3 peptide.
T2 sequence (peptide): MEELQDDYEDDMEERR

Experiment [4] has as its target Heat-denatured ERK2 (Rattus norvegicus (Rat)) (UniProt P63086).
In experiment [5] the target is bovine myelin basic protein (bovine) (UniProt P02687).
Experiment [6] addresses Kemptide.
Experiment [7] deals with poly (Glu^80 -Tyr^20).
Experiment [8] addresses Histones.
The target of experiment [9] is T3, Syntide-2.
T3 sequence (peptide): PLARTLSVAGLPGKK

Experiment [10] deals with T4, ETE peptide.
T4 sequence (peptide): RRREEETEEE

The target of experiment [11] is Ribosomal S6 protein.
The target in experiment [12] is T5, RR-SRC peptide.
T5 sequence (peptide): RRLIEDAEYAARG

For experiment [13], the target named is Protamine.
The target in experiment [14] is Recombinant ERK2 expressed in E. coli (Rattus norvegicus (Rat)) (UniProt P63086).
The target of experiment [15] is Raf-1.
In experiment [16] the target is T6, TEY peptide.
T6 sequence (peptide): PEHDHTGFLTEYVATRWYR

For experiment [17], the target named is Denatured enolase.

Data on one molecule can be found in patent US5663314.

Sequence of bovine myelin basic protein (bovine) (P02687 whole entry): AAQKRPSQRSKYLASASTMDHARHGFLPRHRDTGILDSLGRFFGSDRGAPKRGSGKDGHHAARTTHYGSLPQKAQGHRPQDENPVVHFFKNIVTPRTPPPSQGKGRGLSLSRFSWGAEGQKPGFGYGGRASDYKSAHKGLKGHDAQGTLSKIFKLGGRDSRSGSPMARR

B1: MAPK activator 2 (MAPKK1b), 45 kDa polypeptide purified from EGF-stimulated A431 cells (enzyme)
chain: MPKKKPTPIQLNPAPDGSAVNGTSSAETNLEALQKKLEELELDEQQRKRLEAFLTQKQKVGELKDDDFEKISELGAGNGGVVFKVSHKPSGLVMARKLIHLEIKPAIRNQIIRELQVLHECNSPYIVGFYGAFYSDGEISICMEHMVIKGLTYLREKHKIMHRDVKPSNILVNSRGEIKLCDFGVSGQLIDSMANSFVGTRSYMSPERLQGTHYSVQSDIWSMGLSLVEMAVGRYPIPPPDAKELELMFGCQVEGDAAETPPRPRTTPGRPLSSYGMDSRPPMAIFQLLDYIVNEPPPKLPSGVFSLEFQDFVNKCLIKNPAERADLKQLMVHAFIKRSDAEEVDFAGWLCSTIGLNQPSTPTHAAGV
On to B1, for which the Phosphorylation in experiment [1] was less than 0.005 nmol/min/mg; in experiment [2] it was 0.07 nmol/min/mg; in experiment [3], less than 0.005 nmol/min/mg; in [4] it was less than 0.005 nmol/min/mg; in [5] it was 0.12 nmol/min/mg; in experiment [6] it was less than 0.005 nmol/min/mg. Also, the Phosphorylation was less than 0.005 nmol/min/mg in experiment [7]; 0.04 nmol/min/mg in [8]; 0.04 nmol/min/mg in [9]; less than 0.005 nmol/min/mg in [10]; less than 0.005 nmol/min/mg in experiment [11]; 0.005 nmol/min/mg in experiment [12]. The Phosphorylation in experiment [13] is 0.03 nmol/min/mg; in [14] it was 60 nmol/min/mg; in [15], less than 0.01 nmol/min/mg; in experiment [16] it was 0.005 nmol/min/mg; in experiment [17] it was less than 0.005 nmol/min/mg.
